Measured values from patent US5580747A, “Non-radioactive enzyme assay” (Promega Corporation, priority 1994, dated 1996).
No end group written: not given here.

How the values were obtained:
[1] = biological target: cAMP-dependent protein kinase (Homo sapiens, UniProt P17612); test: Radioactive kinase assay of peptide substrates (32P incorporation, P81 filter); type: biochemical
Method: Radioactive kinase assays were carried out as described in Walton et al., as modified and described here. Five μl Promega Peptide 1 (SEQ ID NO:1) were added to a reaction mixture containing 20mM Tris HCl (pH 7.4), 10 mM MgCl2, 4 micrograms (μg) of cAMP-dependent protein kinase (both catalytic and regulatory subunits), in the presence or absence of 2 micromolar (μM) cAMP, in a volume of 50 μl.
The reaction began with the addition of 10 μl of solution containing 0.15 mM [γ32 P] ATP (about 0.05 Ci/mmol) and 10 mM MgCl2. After a two minute incubation, the reaction was terminated by the addition of 30 μl of H3 PO4 to a final concentration of 0.5%. To measure incorporation of radiolabelled phosphate into the peptide substrate, half the reaction mixture was spotted onto a Whatmann P81 filter. The filters were washed four times in a solution containing 0.5% H3 PO4. Each wash lasted at least five minutes. After washing, the radioactivity present on the filters was measured in a scintillation counter.

protein kinase C = test: Detection of small amounts of protein kinase C, agarose gel; type: biochemical; conditions: 30 minutes at room temperature, UV light
Method: Fifteen microliters of Promega Peptide 5 (SEQ ID NO:5) were incubated in protein kinase C reaction buffer (20 mM HEPES (pH 7.4), 1.3 mM CaCl2, 1 mM DTT, 10 mM MgCl2, 200 μg/mL phosphatidyl serine, 15 mM ATP), and 1 μg Protein Kinase C for 2 hours at room temperature in a final volume of 40 μl. The reaction was stopped by heating the reaction solution to 95° C. for ten minutes.
Five microliters of Promega Peptide 5 (SEQ ID NO:5) and 6 (SEQ ID NO:6) or 2.5 μl of Promega Peptide 4 (SEQ ID NO:4) were incubated with a solution containing 18 μl protein kinase C reaction buffer (described in Example 13) and decreasing amounts of protein kinase C, containing between 60 ng and 60 picograms (pg), for 30 minutes at room temperature. Reactions were stopped by heating the reaction mixtures to 95° C. for 10 minutes.
Referring to FIG. 11, the detection of phosphorylated peptide was observed under UV light, and detection limits noted. Six hundred picograms of protein kinase C could be detected by Promega Peptide 4 (SEQ ID NO:4), 3ng by Promega Protein 5 (SEQ ID NO:5), and 3 ng by Promega Protein 6 (SEQ ID NO:6).

[2] = tested on: Brevibacterium albidum culture supernate; test: Assays of proteases in crude media samples; type: biochemical; conditions: 90 minutes at 37° C.
Method: (§1) Samples of culture supernate from stationary phase cultures of Thermus aquaticus (T. aquaticus) and Brevibacterium albidum (B. albidum) were made by centrifugation of a stationary phase culture at 12,000×g for 2 minutes and transfer of the supernate to fresh tubes. Diluted stocks of Promega Peptides 3 (SEQ ID NO:3), 5 (SEQ ID NO:5) and 6 (SEQ ID NO:6) were made by dilution of the original stocks of these peptides with an equal volume of 50 mM ammonium bicarbonate, pH 7.8. In three independent tubes per peptide, 10 μL of these diluted stocks were incubated with either 10 μL water, 10 μL Thermus supernate, or 10 μL Brevibacterium supernate. The incubations were performed for 90 minutes at 37° C. The samples were then loaded in a 0.9% agarose gel made with 20 mM Tris-Cl pH 8.0. The gel was then electrophoresed at 120 V for 30 minutes, and was photographed under UV light on a transilluminator as described above.
(§2) Reference is made to FIG. 15, which is a photograph of the agarose gel used to analyze the peptide species produced in the digestion of Promega Peptides 3 (SEQ ID NO:3), 5 (SEQ ID NO:5), and 6 (SEQ ID NO:6) by supernates of cultures of T. aquaticus and B, albidum. The gel was photographed under UV light as described in Example 1 and the gel is oriented such that the end of the gel which was oriented towards the negative electrode is towards the top of the photograph.

[3] = tested on: Thermus aquaticus culture supernate; test: Assays of proteases in crude media samples; type: biochemical; conditions: 90 minutes at 37° C.
Method: as §1, §2

alkaline phosphatase = conditions: peptide phosphorylated by protein kinase C; pH 9.2, 37° C. for 45 minutes
Method: Promega Peptide 6 (SEQ ID NO:6) was phosphorylated to provide a substrate for alkaline phosphatase in the following manner: 40 μl Promega Peptide 6 (SEQ ID NO:6) were incubated in a solution containing 20 mM HEPES (pH 7.4), 1.67 mM CaCl2, 1 mM dithiothreotol, 10 mM MgCl2, 100 μg/mL phosphatidylserine, 2 mM ATP, and 50 ng protein kinase C in a final volume of 100 μl at 37° C. for 1.5 hours. The reaction was stopped by incubating the mixture at 95° C. for 10 minutes.
After phosphorylation, 0.1M Tris (pH 9.5) was added to a final pH of 9.2. Fifteen microliters of this solution were mixed with between 0.08 to 200 pmoles of alkaline phosphatase in a final volume of 20 μl and incubated at 37° C. for 45 minutes. The reaction was stopped by freezing the mixtures in a dry ice/ethanol bath. Glycerol was added to a final concentration of 4%, and the samples were run on a 0.8% agarose gel at 75 V for 20 minutes.

Endoprotease Lys C = biological target: T1, Endoprotease Lys C (Lysobacter enzymogenes, UniProt Q7M135); test: Assay of pure proteases using modified peptides, agarose gel; type: biochemical; conditions: 90 minutes at 37° C., 0.1 to 0.001 μg protease
T1 construct: purchased Promega Corp., Madison, Wis
Method: (§3) The proteases Modified Trypsin [sequencing grade] (Promega Corp., Madison, Wis.) and Endoprotease Lys C [sequencing grade] were dissolved in A buffer (50 mM ammonium bicarbonate, pH 7.8). These stocks were diluted with A buffer to produce stocks containing […] protease per 4 μl of liquid. Independent incubations of 4 μl of each of the different protease concentrations were performed with Promega Peptides 5 (SEQ ID NO:5), 6 (SEQ ID NO:6), 7 (SEQ ID NO:7) (5 μl of the stocks described above) in a 20 μl reaction mixture containing: 5 μl peptide; 4 μl protease; and 11 μl A buffer.
(§4) After 90 minutes at 37° C., the samples were loaded into a 0.8% agarose gel made in 20 mM Tris, pH 8.0. The samples were electrophoresed at 150 V. When the control peptide sample had migrated about 0.5 inch from the loading well, the gels were photographed on a transilluminator as described above.
(§5) Reference is made to FIG. 13, which is a photograph of the agarose gel used to analyze the peptide species produced in the digestion of Promega Peptide 6 (SEQ ID NO:6) by modified trypsin and Endoprotease Lys C. The gel was photographed under UV light as described in Example 1 and the gel is oriented such that the end of the gel which was oriented towards the negative electrode is towards the top of the photograph. The lanes are numbered from left to right. […]

Modified Trypsin = biological target: T2, Modified Trypsin (Sus scrofa, UniProt P00761); test: as above; type: biochemical; conditions: 90 minutes at 37° C., 0.1 to 0.001 μg protease
T2 construct: purchased Promega Corp., Madison, Wis
Method: as §3, §4, §5

[4] = biological target: catalytic subunit of cAMP-dependent protein kinase (Homo sapiens, UniProt P17612); test: Quantitation of cAMP-dependent protein kinase activity using a spectrophotometer; type: biochemical; conditions: for A570: phosphorylated peptide band
Method: Three microliters of Promega Peptide 7 (SEQ ID NO:7) were phosphorylated by varying amounts of cAMP-dependent protein kinase. The reactions took place in a volume of 20 μl in a solution containing 3 mM ATP, 20 mM HEPES buffer (pH 7.4), and between 50 ng and 1 μg catalytic subunit of cAMP-dependent protein kinase. The mixture was incubated for 30 minutes at room temperature, and the reactions were stopped by heating the mixture at 95° C. for five minutes.
At this time, the phosphorylated and non-phosphorylated species had separated and could be detected by ultraviolet light. The phosphorylated peptide was then excised from the gel with a razor blade, and the agarose was melted by heating at 95° C. for 2 minutes. Two hundred microliters of the melted agarose were then diluted to 400 μl in a solution containing 2M urea and 1M acetic acid. The absorbance of the solution at 570 nm was then determined in a Milton-Roy Spectronic 1201 spectrophotometer.

[5] = biological target: catalytic subunit of the cAMP-dependent protein kinase (Homo sapiens, UniProt P17612); test: Quantitation of cAMP-dependent protein kinase activity using microtiter plate reader; type: biochemical; conditions: for A570: phosphorylated peptide band
Method: Eight microliters of Promega Peptide 7 (SEQ ID NO:7) was phosphorylated by the catalytic subunit of the cAMP-dependent protein kinase. The amount of kinase used in the assay varied from 4.5 μg to 0.9 ng, diluted from a stock solution of 2.25 mg/ml. The reactions took place in a volume of 24 μl for 30 minutes at room temperature, and were stopped by heating the solutions at 95° C. for five minutes.
After heating, glycerol was added to the solutions to a final concentration of 4%. The solutions were then loaded on a 0.8% agarose gel, which was run at 100 V until the phosphorylated and non-phosphorylated bands had separated and migrated from the wells.
The agarose containing the phosphorylated peptide was excised from the gel with a razor blade and placed into Eppendorph tubes. The agarose was melted, and 145 μl agarose solution were diluted in urea and acetic acid to a final concentration of 2M and 1M, respectively, in a final volume of 250 μl.
The solutions were placed in the wells of a microtiter plate and allowed to cool. After the agarose re-solidified, the absorbance of the wells at 570 nanometers (nm) was read.

[6] = 8 μl peptide, 30 minutes at room temperature

T1 sequence (Q7M135 whole entry): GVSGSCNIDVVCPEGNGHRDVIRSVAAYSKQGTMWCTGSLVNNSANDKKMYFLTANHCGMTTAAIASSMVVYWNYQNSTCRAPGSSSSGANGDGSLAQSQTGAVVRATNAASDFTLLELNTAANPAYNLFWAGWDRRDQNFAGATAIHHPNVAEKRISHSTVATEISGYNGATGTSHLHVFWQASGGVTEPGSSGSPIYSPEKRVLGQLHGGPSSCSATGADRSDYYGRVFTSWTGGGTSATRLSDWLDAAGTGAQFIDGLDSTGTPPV
T2 sequence (P00761 9-231): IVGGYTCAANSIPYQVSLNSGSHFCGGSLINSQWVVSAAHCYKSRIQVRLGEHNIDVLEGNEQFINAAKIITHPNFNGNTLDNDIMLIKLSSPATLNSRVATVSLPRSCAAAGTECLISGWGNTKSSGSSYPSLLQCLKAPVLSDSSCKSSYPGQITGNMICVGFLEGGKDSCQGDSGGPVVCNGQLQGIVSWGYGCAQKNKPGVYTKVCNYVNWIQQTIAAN

Substance: LRRASLG [Kemptide]
- CPM (+cAMP) ([1]; 2 μM cAMP, 4 μg cAMP-dependent protein kinase, [γ32P]ATP, two minute incubation): 471,840 CPM
- Stimulation ([1]; CPM +cAMP relative to no cAMP): 82
- CPM (no cAMP) ([1]; no cAMP, 4 μg cAMP-dependent protein kinase, [γ32P]ATP, two minute incubation): 5760 CPM

Substance: Promega Peptide 4: Lissamine Rhodamine-tagged peptide *-R-F-A-R-K-G-S-L-R-Q-K-N-V (SEQ ID NO:4) ({Lissamine Rhodamine}-RFARKGSLRQKNV)
- amount of protein kinase C that could be detected (protein kinase C): Six hundred

Substance: Promega Peptide 5: Lissamine Rhodamine-tagged peptide *-Q-R-R-Q-R-K-S-R-R-T-I (SEQ ID NO:5) ({Lissamine Rhodamine}-QRRQRKSRRTI)
- proteolysis by B. albidum supernate [2]: proteolysis of the peptide had taken place
- proteolysis by T. aquaticus supernate [3]: proteolysis of the peptide had taken place
- amount of protein kinase C that could be detected (protein kinase C): 3 ng

Substance: Promega Peptide 6: Lissamine Rhodamine-tagged peptide *-P-L-S-R-T-L-S-V-A-A-K-K (SEQ ID NO:6) ({Lissamine Rhodamine}-PLSRTLSVAAKK)
- amount of alkaline phosphatase at which dephosphorylation of the phosphorylated peptide could be seen (alkaline phosphatase): 60 ng
- digestion by Endoprotease Lys C (Endoprotease Lys C): fluorescent species with mobilities altered
- digestion by Modified Trypsin (Modified Trypsin): fluorescent species with mobilities altered
- proteolysis by B. albidum supernate [2]: proteolytic cleavage of the peptide had occurred
- proteolysis by T. aquaticus supernate [3]: proteolytic cleavage of the peptide had occurred
- amount of protein kinase C that could be detected (protein kinase C): 3 ng

Substance: Promega Peptide 7: Lissamine Rhodamine-tagged Kemptide *-L-R-R-A-S-L-G (SEQ ID NO:7) ({Lissamine Rhodamine}-LRRASLG)
- A570 -Blank ([4]; Kinase 0.05 μg (1:200)): 0.009
- A570 -Blank ([4]; Kinase 0.10 μg (1:100)): 0.021
- A570 -Blank ([4]; Kinase 0.20 μg (1:50)): 0.029
- A570 -Blank ([4]; Kinase 0.50 μg (1:20)): 0.130
- A570 -Blank ([4]; Kinase 1.0 μg (1:10)): 0.163
- A570 ([4]; Kinase 0.05 μg (1:200)): 0.024
- A570 ([4]; Kinase 0.10 μg (1:100)): 0.036
- A570 ([4]; Kinase 0.20 μg (1:50)): 0.044
- A570 ([4]; Kinase 0.50 μg (1:20)): 0.145
- A570 ([4]; Kinase 1.0 μg (1:10)): 0.178
- digestion by Endoprotease Lys C (Endoprotease Lys C): did not show any digestion
- kinase amount below which it could not be detected [5, 6]: 0.009 µg
- kinase amount that saturated the system [5, 6]: more than 0.9 μg
- A570 -Blank ([5]; Kinase 0.0009 μg (1:10,000)): 0.009
- A570 -Blank ([5]; Kinase 0.009 μg (1:1,000)): 0.010
- A570 -Blank ([5]; Kinase 0.09 μg (1:100)): 0.022
- A570 -Blank ([5]; Kinase 0.9 μg (1:10)): 0.107
- A570 -Blank ([5]; Kinase 4.5 μg (1:2)): 0.106
- A570 ([5]; Kinase 0.0009 μg (1:10,000)): 0.106 +/- 0.013
- A570 ([5]; Kinase 0.009 μg (1:1,000)): 0.107 +/- 0.003
- A570 ([5]; Kinase 0.09 μg (1:100)): 0.119 +/- 0.002
- A570 ([5]; Kinase 0.9 μg (1:10)): 0.204 +/- 0.003
- A570 ([5]; Kinase 4.5 μg (1:2)): 0.203 +/- 0.005
- correlation coefficient between kinase concentration and absorbance ([5]; range of 0.009 to 0.9 μg kinase added): 0.999

Substance: Sulforhodamine 101 Derivative of V^6 A^5 Kemptide ({sulforhodamine 101}-LRRASVA) [Promega Peptide 3]
- proteolysis by B. albidum supernate [2]: novel peptide species made in small amount
- proteolysis by T. aquaticus supernate [3]: proteolytic cleavage of the peptide had occurred
